Reference: patent publication US9333272B2, “Fibrin binding peptide conjugates for diagnostic and therapeutic applications” (Bracco Imaging SpA, priority 2006, dated 2016)
Ends that are not written are not given here.

What was measured:
[1] = molecular target: T1, fibrin in human clots (Homo sapiens, UniProt P02671+P02675+P02679); assay: In vitro MRI of human clots at different incubation concentrations (Example 15)
T1 construct: tissue Dade Behring Control Plasma N; host or cells: clots formed in vitro from pooled human plasma with Pathromtin SL and CaCl2
T1 sequence (P02671 36-629 limits assumed): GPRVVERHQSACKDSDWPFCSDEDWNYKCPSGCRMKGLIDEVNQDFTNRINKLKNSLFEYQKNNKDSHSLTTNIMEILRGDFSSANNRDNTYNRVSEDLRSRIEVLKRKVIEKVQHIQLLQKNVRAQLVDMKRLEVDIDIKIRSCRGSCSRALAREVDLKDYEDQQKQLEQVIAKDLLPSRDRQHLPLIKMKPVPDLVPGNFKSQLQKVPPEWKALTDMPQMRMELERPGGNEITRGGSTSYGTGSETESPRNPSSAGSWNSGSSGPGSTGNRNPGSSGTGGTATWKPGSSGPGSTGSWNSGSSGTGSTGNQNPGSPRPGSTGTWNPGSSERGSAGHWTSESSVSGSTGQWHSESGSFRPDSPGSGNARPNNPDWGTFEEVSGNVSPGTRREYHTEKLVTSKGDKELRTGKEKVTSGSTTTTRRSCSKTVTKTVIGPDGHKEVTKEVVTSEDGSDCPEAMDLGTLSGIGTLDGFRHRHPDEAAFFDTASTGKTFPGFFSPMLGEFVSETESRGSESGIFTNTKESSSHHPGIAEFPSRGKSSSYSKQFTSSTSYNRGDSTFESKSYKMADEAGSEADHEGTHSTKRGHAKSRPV
T1 sequence (P02675 45-491 limits assumed): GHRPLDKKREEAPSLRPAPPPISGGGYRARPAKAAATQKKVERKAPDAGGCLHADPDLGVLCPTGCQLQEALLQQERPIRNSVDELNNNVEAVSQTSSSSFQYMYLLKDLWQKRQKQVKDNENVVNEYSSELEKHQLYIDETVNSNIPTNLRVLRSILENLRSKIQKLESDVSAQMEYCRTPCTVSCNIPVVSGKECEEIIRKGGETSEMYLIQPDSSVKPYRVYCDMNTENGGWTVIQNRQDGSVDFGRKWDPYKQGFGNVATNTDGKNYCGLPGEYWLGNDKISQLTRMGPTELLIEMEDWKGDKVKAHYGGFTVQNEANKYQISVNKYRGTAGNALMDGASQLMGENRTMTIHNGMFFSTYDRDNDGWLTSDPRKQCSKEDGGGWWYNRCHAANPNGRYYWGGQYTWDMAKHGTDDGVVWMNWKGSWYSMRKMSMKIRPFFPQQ
T1 sequence (P02679 27-437 isoform P02679-2 limits assumed): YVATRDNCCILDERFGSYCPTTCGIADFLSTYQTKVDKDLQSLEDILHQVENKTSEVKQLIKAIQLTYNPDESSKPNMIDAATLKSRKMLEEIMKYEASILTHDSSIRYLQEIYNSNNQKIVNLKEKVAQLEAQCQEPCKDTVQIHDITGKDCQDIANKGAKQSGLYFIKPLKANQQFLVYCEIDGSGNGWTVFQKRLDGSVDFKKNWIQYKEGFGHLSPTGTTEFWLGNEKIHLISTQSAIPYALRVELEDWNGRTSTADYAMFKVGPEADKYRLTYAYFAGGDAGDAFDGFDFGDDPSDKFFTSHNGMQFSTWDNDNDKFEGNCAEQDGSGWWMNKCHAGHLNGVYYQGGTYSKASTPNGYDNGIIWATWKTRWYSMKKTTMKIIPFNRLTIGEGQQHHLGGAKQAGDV
Procedure: By following the above procedure, a second wider group of chelate compounds of the invention including, for instance, Chelate Complexes from 1 to 7 and the Reference Compounds from 1 to 6 were tested on human clots at different incubation concentration (25 to 400 μM of complex). Signal enhancement (%) was then determined for each clots by MR Imaging at 2T and corresponding Gd content in clots was measured by ICP.
By comparing the signal enhancement in clots, for instance at incubation concentration of 100 μM of peptide, tested compounds could be classified in term of performance as follows (Max signal enhancement was normalized to the chelate complex 4): […]
(§1) High resolution MRI was then performed at 2 Tesla by using T1-weighted Spin-Echo (SE) sequences. T1 maps were also calculated from the acquisitions of 2D gradient echo images or inversion recovery spin echo images.
(§2) The maximum signal intensity was measured within a region of interest (ROI) including a clot, drawn by an operator on each MR image using a dedicated software (MR Research Systems Ltd, Surrey UK). Max signal intensity enhancement (Enh %) was determined as: Enh %=100*(SIx−SI0)/SI0 where SI0 and SIx are the signal intensity of clots incubated without and with test compounds, respectively.

[2] = molecular target: T2, fibrin in human plasma clots (Homo sapiens, UniProt P02671+P02675+P02679); assay: In vitro MRI of plasma clots at 100 μM (Example 14)
T2 construct: tissue Dade Behring Control Plasma N; host or cells: clots formed in vitro from pooled human plasma with Pathromtin SL and CaCl2
T2 sequence (P02671 36-629 limits assumed): T1 sequence (P02671 36-629 limits assumed)
T2 sequence (P02675 45-491 limits assumed): T1 sequence (P02675 45-491 limits assumed)
T2 sequence (P02679 27-437 isoform P02679-2 limits assumed): T1 sequence (P02679 27-437 isoform P02679-2 limits assumed)
Procedure: Small plasma clots from different species (human, guinea pig and mouse) were formed by combining citrate plasma (1:3,v/v) phospholipids (Reagent Pathromtin) and CaCl2 0.008 M (Dade Behring, Germany) into small 2 ml vials at 37° C. Clots were washed 3 times with TBS 1× and incubated with contrast agents at a concentration of 100 μM of complex, for 30 minutes at 37° C. Two clots were prepared for each solution of incubation. After the incubation clots were washed 4 times with TBS 1× and placed into small vials filled with TBS 1× for MRI analysis. […] Maximum signal intensity of each clot was measured in recovered MR images and compared to the signal from clots incubated with TBS. […]
as §1, §2

## Chelate Complex 1: Gd chelate (four DTPA-Glu) conjugated via linker to fibrin-binding peptide SEQ ID NO:001 (WQPCPAESWTFCWDPGGGK; cysteine pairing not given here; also: Gd chelate (four DTPA-Glu) conjugated via linker, site not given here, metal complex: Gd)
[1]; human clots, incubation 100 μM of peptide, MRI at 2T, normalized to chelate complex 4
  Max signal Enhancement (%) at 100 μM: 93.2%
[1]; incubation concentration 100 μM
  Signal enhancement in clots, comparison in words: best results
[2]; 100 μM of complex
  Signal enhancement in clots, comparison in words: provides the maximum signal enhancement
[2]; clots incubated with 100 μM of complex, 30 min, 37°C, T1-weighted MRI at 2T, normalized to chelate complex 1
  Max signal Enhancement at 100 μM: 100%
